Measured values: IntAct's records for PubMed 19017798

B1: Latent membrane protein 1 (Epstein-Barr virus (strain B95-8) (HHV-4)), P03230 (parent)
chain: MEHDLERGPPGPRRPPRGPPLSSSLGLALLLLLLALLFWLYIVMSDWTGGALLVLYSFALMLIIIILIIFIFRRDLLCPLGALCILLLMITLLLIALWNLHGQALFLGIVLFIFGCLLVLGIWIYLLEMLWRLGATIWQLLAFFLAFFLDLILLIIALYLQQNWWTLLVDLLWLLLFLAILIWMYYHGQRHSDEHHHDDSLPHPQQATDDSGHESDSNSNEGRHHLLVSGAGDGPPLCSQNLGAPGGGPDNGPQDPDNTDDNGPQDPDNTDDNGPHDPLPQDPDNTDDNGPQDPDNTDDNGPHDPLPHSPSDSAGNDGGPPQLTEEVENKGGDQGPPLMTDGGGGHSHDSGHGGGDPHLPTLLLGSSGSGGDDDDPHGPVQLSYYD
partner: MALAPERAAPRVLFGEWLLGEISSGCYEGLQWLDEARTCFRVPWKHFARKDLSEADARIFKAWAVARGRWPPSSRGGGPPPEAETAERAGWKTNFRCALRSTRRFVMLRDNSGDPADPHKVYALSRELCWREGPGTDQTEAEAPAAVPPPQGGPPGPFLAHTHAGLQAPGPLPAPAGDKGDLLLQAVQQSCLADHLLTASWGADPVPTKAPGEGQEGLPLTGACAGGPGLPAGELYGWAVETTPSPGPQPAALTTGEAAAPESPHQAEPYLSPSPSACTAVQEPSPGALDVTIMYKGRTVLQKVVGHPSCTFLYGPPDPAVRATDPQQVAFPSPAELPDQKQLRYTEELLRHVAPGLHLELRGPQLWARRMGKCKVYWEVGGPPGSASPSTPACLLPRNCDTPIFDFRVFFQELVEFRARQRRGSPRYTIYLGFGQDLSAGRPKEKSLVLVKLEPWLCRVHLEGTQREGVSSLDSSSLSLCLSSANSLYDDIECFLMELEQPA

Variants of: B1
Details: with IRF7, Q92985-1

| Variant | effect of a mutation on the interaction |
| --- | --- |
| P376A;H377A;G378A;P379A;V380A;Q381A;L382A;S383A | disrupting interaction |
